The text below walks through data of patent publication US20210171624A1 (ELIXIRON IMMUNOTHERAPEUTICS HONG KONG, published 2021).

Changes are numbered by the printed parent chain.

The target in assay [1] is T1, recombinant human IFN-γ protein (human, UniProt P01579 24-166, limits assumed).
T1 sequence: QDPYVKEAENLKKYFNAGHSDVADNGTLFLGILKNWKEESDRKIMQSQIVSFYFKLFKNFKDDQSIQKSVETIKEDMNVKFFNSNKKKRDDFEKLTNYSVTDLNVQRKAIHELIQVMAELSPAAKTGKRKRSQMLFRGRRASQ
Description: ELISA, biotinylated human IFN-γ on streptavidin plate, HRP anti-human IgG, OD 450-650 nm. How it is done:
(§1) Recombinant human IFN-γ (R&D systems 285-IF-100) and Cynomolgus IFN-γ (R&D systems 961-RM-025) were biotinylated according to kit manual (EZ-Link NHS-LC-Biotin; Thermo #21336) and bound to streptavidin coated plate respectively. After incubated at room temperature for 1-2 hours, the plate was washed three times with 300 μL wash buffer. Serial dilutions of anti-IFN-γ antibody were added to wells. After incubated at room temperature for 1-2 hours, the plate was washed three times with 300 μL wash buffer. HRP anti-Human IgG was applied to each well at room temperature for 1 hour incubation. After washing, the plates were developed with TMB substrate, and analyzed under OD₄₅₀₋₆₅₀.

Assay [2] deals with T1, recombinant human IFN-γ protein. Description: BLI (Octet RED96), mAb captured on AHC biosensor, recombinant human IFN-γ in solution, 1:1 model; second experiment. How it is done:
(§2) Antibody-binding kinetic rate constants (kₐ and kd) were measured by Bio-Layer Interferometry (BLI, ForteBio Octet RED96). […] Rate constants were calculated by curve fitting analyses (1:1 Langmuir model) of binding response with a 5-minute association and 15-minute dissociation interaction time.
On the technique in general: Biolayer interferometry detects binding as a change in optical thickness at a sensor tip.

The target is the same in assay [3]. Description: cell-based or functional assay.
In a further assay the target is T2, bovine serum albumin (bovine, UniProt P02769 25-607).
T2 construct: also called BSA
T2 sequence (P02769 25-607 limits assumed): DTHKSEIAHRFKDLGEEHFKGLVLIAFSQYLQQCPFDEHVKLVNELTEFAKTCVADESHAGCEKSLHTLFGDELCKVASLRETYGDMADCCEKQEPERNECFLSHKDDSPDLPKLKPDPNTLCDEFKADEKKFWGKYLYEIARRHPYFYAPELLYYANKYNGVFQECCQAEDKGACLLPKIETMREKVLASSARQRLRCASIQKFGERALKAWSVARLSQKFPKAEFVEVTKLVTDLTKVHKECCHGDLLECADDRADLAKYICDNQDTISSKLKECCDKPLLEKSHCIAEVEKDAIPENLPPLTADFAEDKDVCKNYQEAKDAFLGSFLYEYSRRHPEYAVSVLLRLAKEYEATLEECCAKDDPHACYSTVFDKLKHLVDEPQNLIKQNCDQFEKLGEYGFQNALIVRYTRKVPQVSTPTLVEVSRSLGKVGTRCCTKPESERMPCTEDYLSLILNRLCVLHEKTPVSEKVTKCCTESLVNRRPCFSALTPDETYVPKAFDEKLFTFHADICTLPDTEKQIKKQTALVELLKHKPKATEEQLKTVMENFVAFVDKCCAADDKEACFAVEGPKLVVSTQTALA
Description: ELISA, plate coated with 2 µg/mL BSA, anti-human IgG Fc-AP detection, OD 405 nm. How it is done: A clear polystyrene 96-well, flat-bottomed plate (Nunc) was coated with 100 μL of recombinant human IFN-γ protein (2 μg/mL) or BSA (2 μg/mL) in bicarbonate buffer (pH 9.6) per well and incubated at 4° C. overnight. The plate was washed three times using phosphate-buffered saline (PBS) with 0.05% Tween 20 and then blocked with 5% human normal serum albumin (Aventis) in PBS for 2 hours at 25° C. The plate was washed again using PBS with 0.05% Tween 20, after which each of 1E8, 2F2, 2A6, 2B6, AB and BA mAbs in two different concentrations of 1 μg/mL and 0.1 μg/mL were added into the wells of the plate for binding with the recombinant human IFN-γ protein, followed by reaction at 25° C. for 2 hours. The plate was thoroughly washed using PBS with 0.05% Tween 20, and then Fc-specific alkaline phosphatase-conjugated AffiniPure Goat anti-human IgG (Cappel) was added at a dilution ratio of 1:2500. The plate was placed for 90 minutes at 37° C. and then washed five times using PBS with 0.05% Tween 20. After adding p-Nitrophenyl phosphate (pNPP) solution (100 μL/well), the plate was placed at 37° C. for 30 minutes. Absorbance was determined at OD405 nm with a VICTOR X3 Multilabel Plate Reader (PerkinElmer).
(In general: ELISA stands for enzyme-linked immunosorbent assay.)

The target in assay [4] is T1, recombinant human IFN-γ protein. Description: BLI (Octet RED96), mAb captured on AHC biosensor, recombinant human IFN-γ in solution, 1:1 model. How it is done:
as §2

The target in assay [5] is T3, rhesus macaque/cynomolgus IFN-γ (rhesus macaque/cynomolgus, UniProt P63310 24-165).
T3 construct: also called R&D systems 961-RM-025
T3 sequence (looked up): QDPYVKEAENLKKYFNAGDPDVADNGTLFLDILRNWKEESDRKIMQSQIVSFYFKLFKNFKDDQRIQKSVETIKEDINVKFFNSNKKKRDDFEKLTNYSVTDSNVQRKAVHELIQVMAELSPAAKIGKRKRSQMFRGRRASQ
As to the kind of experiment: ELISA, biotinylated rhesus macaque/cynomolgus IFN-γ on streptavidin plate, HRP anti-human IgG, OD 450-650 nm. The procedure:
as §1

For orientation: EC50 (read off the curve) means the concentration at which the effect is half-maximal. One may read the Kd as the constant that tells how readily two partners part at equilibrium. The term koff denotes a measure of how fast the partners let go of each other. As usually defined, the kon is a measure of how fast the partners come together. Consider AMG811 (antibody), for which the EC50 (read off the curve) in assay [1] was 5 ng/mL. Besides, in assay [2], the dissociation constant Kd came to 34.7 pM, the off-rate constant (koff) amounted to 8.59e-05 s⁻¹ and the kon came to 2.48e+06 M⁻¹ s⁻¹.

B1: antibody 1E8 (antibody, human IgG1, V domains shown)
VH: EVQLLESGGGLVQPGGPLRLSCAASGFTFSIYSMNWVRQAPGKGLEWVSSISGSGDNTYYADSVKGRFTITRDSSKNTLYLQMNTLRAEDTAVYFCAKSGRNIISPGFDSWGQGTLVTVSS
VL: QPVLTQPPSASASLGASVTLTCTLNSDYGDYKVDWYQQRPGKGPRFVMRVGTGGIVGSKGDGIPDRFSVLGSGLNRFLTIKNIQEEDESDYYCGADHGSANNFIWVFGGGTKLTVL
notes: Human IgG1 lambda
As for B1, in assay [3], the “IC50, inhibition of IFN-γ induced HLA-DR expression on THP-1 cells” value (“IC50, inhibition” for short) is 8.6 ng/mL and the “IC90, inhibition of IFN-γ induced HLA-DR expression on THP-1 cells” value (from here on “IC90, inhibition”) was determined as 48.6 ng/mL. The binding result with bovine serum albumin is “no binding (tested: 1.0 µg/mL)”. Also, in assay [4], the Kd amounted to 261 pM, the dissociation rate constant (koff) was 0.000121 s⁻¹ and the association rate constant (kon) is 464000 M⁻¹ s⁻¹.

B2: antibody 2A6 (antibody, human IgG1, V domains shown)
VH: EVQLVESGGGLVKPGDSLTVSCVASGFTFSNYFIHWVRQAPGKGLEWVATISGRTKYMFYSDSLRGRFTVSRDNANNSVYLHMSSLRGEDTALYYCVRGYDHSDSNSAADLLHWGRGTLVTVSS
VL: NFMLTQPLSVSGYPGKTIVISCVRSSGSVASHYVQWFQQRPGSAPAMVIYEDSHRPSGIPDRFSGSVDASSNSASLTISGLKTEDEADYFCQSYYGNNQVLFGGGTKLTVL
modifications: partial N-linked glycosylation at Asn-76 of the VH
notes: Human antibody from a single B cell, cloned into human IgG1 lambda expression vectors and made in FreeStyle 293-F cells
For B2, in assay [3], the “IC50, inhibition” value is 3.4 ng/mL and the “IC90, inhibition” value was found to be 3850 ng/mL. The binding result with bovine serum albumin is recorded as “no binding (tested: 1.0 µg/mL)”. Further, in assay [4], the Kd came to 36.8 pM, the off-rate (koff) turned out to be 3.97e-05 s⁻¹ and the kon amounted to 1.08e+06 M⁻¹ s⁻¹. In addition, the “EC50 (read off the curve)” value in assay [1] is approximately 7 ng/mL. In addition, in assay [2], the Kd is 18.7 pM, the koff turned out to be 4.9e-05 s⁻¹ and the association rate constant (kon) was 2.61e+06 M⁻¹ s⁻¹. Further, in assay [5], the “EC50 (read off the curve)” value is approximately 5 ng/mL.

B3: antibody AB (antibody, human IgG1, V domains shown)
VH: B2 VH
VL: NFMLTQPHSVSESPGKTITISCTRGRGYIASYYVQWYQQRPGGVPKIVVFEDTQRPSGVPDRISGSIDTSTNSASLTISGLQTEDEADYYCQSYDDANHVIFGGGTKLTVL
notes: Combination of the 2A6 VH heavy chain and the 2B6 VL light chain; human IgG1 lambda; also called VH2A6/VL2B6
Take B3: the binding result in the assay with bovine serum albumin was “no binding (tested: 1.0 µg/mL)”. Moreover, the “EC50 (read off the curve)” value in assay [1] is approximately 7 ng/mL. For the same molecule, in assay [2], the Kd was found to be 25 pM, the koff came to 5.46e-05 s⁻¹ and the kon stood at 2.19e+06 M⁻¹ s⁻¹. Moreover, in assay [5], the concentration giving a half-maximal response (EC50 (read off the curve)) was approximately 5 ng/mL.

B4: antibody BA (antibody, human IgG1, V domains shown)
VH: EVQLVESGGGLVKPGGSLRLSCAASGFPFSRYSMHWVRQAPGKGLEWVSSMTSRTNHKYYADSLKGRFLISRDNDRDSLYLEMNSLGVEDTAIYFCARGYDTSGSDSGVDFQYWGQGTLVTVSS
VL: B2 VL
notes: Combination of the 2B6 VH heavy chain and the 2A6 VL light chain; human IgG1 lambda; also called VH2B6/VL2A6
Consider B4, for which, in the assay with bovine serum albumin, the binding result is “no binding (tested: 1.0 µg/mL)”.

B5: antibody 2A6_Q (antibody, human IgG1, V domains shown)
VH: B2 VH with N76Q
VL: B2 VL
notes: removes the N-glycosylation site of the VH; human IgG1 lambda; also called c2A6_Q
Take B5: the concentration for a half-maximal effect (EC50 (read off the curve)) in assay [1] is approximately 7 ng/mL. In assay [2], the Kd came to 21.7 pM, the koff was 5.23e-05 s⁻¹ and the kon was found to be 2.41e+06 M⁻¹ s⁻¹. For the same molecule, the “EC50 (read off the curve)” value in assay [5] is approximately 5 ng/mL.

B6: antibody 2A6_A (antibody, human IgG1, V domains shown)
VH: B2 VH with N76A
VL: B2 VL
notes: removes the N-glycosylation site of the VH; human IgG1 lambda; also called c2A6_A
As to B6, in assay [1], the “EC50 (read off the curve)” value was approximately 7 ng/mL. In assay [2], the Kd is 22.3 pM, the koff amounted to 5.17e-05 s⁻¹ and the kon turned out to be 2.32e+06 M⁻¹ s⁻¹. In addition, the “EC50 (read off the curve)” value in assay [5] is approximately 5 ng/mL.

B7: antibody 2B6 (antibody, human IgG1, V domains shown)
VH: B4 VH
VL: B3 VL
notes: Human IgG1 lambda
On to B7, for which, in assay [3], the “IC50, inhibition” value was determined as 3.5 ng/mL and the “IC90, inhibition” value was 1020 ng/mL. Further, the binding result with bovine serum albumin was “no binding (tested: 1.0 µg/mL)”. Besides, in assay [4], the equilibrium dissociation constant (Kd) was 73.1 pM, the off-rate (koff) worked out at 0.000108 s⁻¹ and the kon is 1.48e+06 M⁻¹ s⁻¹. Also, in assay [1], the “EC50 (read off the curve)” value is approximately 7 ng/mL. For the same molecule, in assay [2], the Kd is 17.2 pM, the off-rate (koff) turned out to be 5.4e-05 s⁻¹ and the kon amounted to 3.13e+06 M⁻¹ s⁻¹. For the same molecule, the concentration giving a half-maximal response (EC50 (read off the curve)) in assay [5] was approximately 5 ng/mL.

B8: antibody 2F2 (antibody, human IgG1, V domains shown)
VH: EVQLVESGGGLVKPGESLRLACVASGFNFSDYYMTWIRQAPGKGLEWVSYISNSGSHTYYADAVKGRFTVSRDNAKNSLYLQMTSLRGEDTAIYFCARDPSIMRGTYYMDVWGKGTTVTVSS
VL: QSVLTQPPSASGTPGQRVTISCSGSSSNIGTNPVSWYQQFPGMAPKLLIYFNNQRPSGVPERFSGSKSGTPASLAIGGLQSEDEANYYCASWDDTLNGLVFGGGTKLTVL
notes: Human IgG1 lambda
As for B8, in assay [3], the “IC50, inhibition” value came out at 36.1 ng/mL and the “IC90, inhibition” value came to 508 ng/mL. Besides, the binding result in the assay with bovine serum albumin is listed as “no binding (tested: 1.0 µg/mL)”. Further, in assay [4], the Kd is 317 pM, the koff worked out at 0.000109 s⁻¹ and the kon amounted to 344000 M⁻¹ s⁻¹.
